Here are results for one substance from PMC4663120.

The test has as its target FhuA ΔC/Δ5L (E. coli) (UniProt P06971). As to the kind of experiment: single-channel electrical recording on planar lipid bilayer.

For the substance “nucleocapsid protein 7 (NCp7) (natural protein)”, the duration of transient current blockades is < 1 ms.
